Laboratory results: US6096504A, “Maize glutathione-S-transferase enzymes” (E. I. du Pont Nemours and Company, priority 1999, dated 2000)

B1: ceb5.pk0051.f8: maize class III GST enzyme encoded by cDNA clone, expressed in E. coli (protein)
chain: MAGETKKGLVLLDFWVSPFGQRCRIALAEKGIAYEYSEQELLGGAKSDILLRSNPVHKKIPVLLHDGRPVCESLVILEYLEEAFPEASPRLLPDAAYARAQARFWAAYSDKVYKAGTRLWKLRGDARAQARAEIVQVVRNLDGELGDKAFFGGEAFGFVDVALVPFVPWLPSYERYGDFSVAEIAPRLAAWARRCAQRESVARTLHPPEKVDEFINLLKKTYGIE
B2: ceb5.pk0049.a11: maize class III GST enzyme encoded by cDNA clone, expressed in E. coli (protein)
chain: MAEEKKQGLQLLDFWVSPFGQRCRIALDEKGLAYEYLEQDLRNKSELLLRANPVHKKIPVLLHDGRPVCESLVIVQYLDEAFPEAAPALLPADPYARAQARFWADYVDKKLYDCGTRLWKLKGDGQAQARAEMVEILRTLEGALGDGPFFGGDALGFVDVALVPFTSWFLAYDRFGGVSVEKECPRLAAWAKRCAERPSVAKNLYPPEKVYDFVCGMKKRLGIE
B3: m.15.5.d06.sk20: maize class II GST enzyme encoded by cDNA clone, expressed in E. coli (protein)
chain: MAEVEATVGRLMLYSYWRSSCSHRARIALNLKGVDYEYKAVNLLKGEQSDPEFVKLNPMKFVPALVDGSSVIGDSYAITLYLEDKYPEPPLLPQDLQKKALNHQIASIVASGIQPLHNLTVLRFIDQKVGAGESVLWTQQQIERGFTAIENLIQLKGCAGKYATGDEVQLADVFLAPQIYAAIERTKIDMSNYLTLARLHSEYMSHPAFEAALPGKQPDAPSSS
B4: ceb1.pk0017.a5: maize class I GST enzyme encoded by cDNA clone, expressed in E. coli (protein)
chain: MAAPVTVYGPMLSPAVARVAACLLEKDVPFQIEPVDMSKGEHKSPSFLKLQPFGQVPAFKDHLTTVFESRAICRYICDQYADSGNQALFGKKEDGAVGRAAIEQWIESEGQSFNPPSLAIIFQLAFAPMMGRTTDLAVVEQNEAKLAKVLDVYDQRLGESQYFAGDDFSPGRPCALAQCRFPCEQNQQGWLDHREKESC
B5: cs1.pk0010.c5: maize class I GST enzyme encoded by cDNA clone, expressed in E. coli (protein)
chain: MAAGLQVFGQPASTDVARVLTCLFEKKLEFELVRIDTFKTHHRLPEFIRLRDPNGQVTFKHGDKTLVDSRDICRYVCNQFPNYGNKSLYGSGALERASIEQWLQAEAQNFGPPSSALVFQLAFVPHLSHLGVRQDPAVIAENEDKLKQVLDVYDEILSKNEYLAGDEFTLADLSHLPNSHYIVNTERGRKLFTNKKNVAKWYDRLSKRETWVQVVKMQKEHPGAFK
B6: bms1.pk0023.g8: maize class I GST enzyme encoded by cDNA clone, expressed in E. coli (protein)
chain: MAPPMKVYGWAVSPWMARALVCLEEAGADYEIVPMSRCGGDHRRPEHLAKNPFGEIPVLEDGDLTLYQSRAIARYVLRKLKPELLREGDLEGSAMVDAWMEVEAHHMEPALWPIIRHSIIGQYVGRERDHQAVIDENLDRLRKVLPAYEARLSVCKYLVGDDISAADLCHFGFMRYFMATEYAGLVDAYPHVKAWWDALLARPSVQKVMAGMPPDFGYASGNIP

test: GST conjugation of CDNB with glutathione (HPLC); type: biochemical; conditions: purified enzyme, 0.4 mM electrophilic substrate, 4 mM glutathione, 0.1 M MOPS pH 7.0
Description: (§1) The GST enzymes, expressed and purified as described in Example 5 were screened for their ability to metabolize a variety of substrates. Substrates tested included the three herbicide electrophilic substrates chlorimuron ethyl, alachlor, and Atrazine, and four model electrophilic substrates, 1-chloro-2,4-dinitrobenzene (CDNB), ethacrynic acid, t-stilbene oxide, and 1,2-epoxy-3-(p-nitrophenoxy)propane. The enzymes were purified as described in Example 5 and used in the following assay.
(§2) For each enzyme, the conjugation reaction with each electrophilic substrate was performed by incubating 0.3 to 30 μg enzyme in 0.1 M MOPS (pH 7.0) containing 0.4 mM of the electrophilic substrate. The reaction was inititated by the addition of glutathione to a final concentration of 4 mM. After 5 to 30 min, the reaction was terminated by the addition of 45 μL acetonitrile, microfuged for 10 min to remove precipitated protein, and then the supernatent was removed and added to 65 μl of water. This sample was chromatographed on a Zorbax C8 reverse phase HPLC column (3 μm particle size, 6.2 mm×8 cm) using a combination of linear gradients (flow=1.5 mL/min) of 1% H3 PO4 in water (solvent A) and 1% H3 PO4 in acetonitrile. The gradient started with 5% solvent B, progressing from 5% to 75% solvent B between 1 and 10 min, and from 75% to 95% solvent B between 10 and 12 min. Control reactions without enzyme were performed to correct for uncatalyzed reaction. Quantitation of metabolites were based on an assumption that the extinction coefficient of the conjugate was identical to that of the electrophilic substrate.

Molecule	activity of enzyme with CDNB [nmol/min/mg]
B1	2136
B2	3939
B3	45
B4	15
B5	30
B6	15

test: GST conjugation of alachlor with glutathione (HPLC); type: biochemical; conditions: purified enzyme, 0.4 mM electrophilic substrate, 4 mM glutathione, 0.1 M MOPS pH 7.0
Description: as §1, §2

Molecule	activity of enzyme with Alachlor [nmol/min/mg]
B1	27
B2	18
B3	0
B4	0
B5	0
B6	0

test: GST conjugation of chlorimuron ethyl with glutathione (HPLC); type: biochemical; conditions: purified enzyme, 0.4 mM electrophilic substrate, 4 mM glutathione, 0.1 M MOPS pH 7.0
Description: as §1, §2

Molecule	activity of enzyme with Chlorimuron-Ethyl [nmol/min/mg]
B1	1.9
B2	0.4
B3	0.1
B4	0.1
B5	0.1
B6	0.2

test: GST conjugation of t-stilbene oxide with glutathione (HPLC); type: biochemical; conditions: purified enzyme, 0.4 mM electrophilic substrate, 4 mM glutathione, 0.1 M MOPS pH 7.0
Description: as §1, §2

Molecule	activity of enzyme with t-Stilbene Oxide [nmol/min/mg]
B1	0.02
B2	0.01
B3	0.00
B4	0.00
B5	0.00
B6	0.00

test: GST conjugation of ethacrynic acid with glutathione (HPLC); type: biochemical; conditions: purified enzyme, 0.4 mM electrophilic substrate, 4 mM glutathione, 0.1 M MOPS pH 7.0
Description: as §1, §2

Molecule	activity of enzyme with Ethacrynic Acid [nmol/min/mg]
B1	117
B2	102
B3	17
B4	5
B5	9
B6	13

test: GST conjugation of Atrazine with glutathione (HPLC); type: biochemical; conditions: purified enzyme, 0.4 mM electrophilic substrate, 4 mM glutathione, 0.1 M MOPS pH 7.0
Description: as §1, §2

Molecule	activity of enzyme with Atrazine [nmol/min/mg]
B1	0.08
B2	0.01
B3	0.00
B4	0.00
B5	0.00
B6	0.00

test: GST conjugation of 1,2-epoxy-3-(p-nitrophenoxy)propane with glutathione (HPLC); type: biochemical; conditions: purified enzyme, 0.4 mM electrophilic substrate, 4 mM glutathione, 0.1 M MOPS pH 7.0
Description: as §1, §2

Molecule	activity of enzyme with 1,2-epoxy-3-(p-nitrophenoxy)propane [nmol/min/mg]
B1	14
B2	30
B3	1
B4	0
B5	0
B6	0
